Several values for one entry are separate records, joined by “and”; a condition that tells them apart may be missing. Equal values may be shown once.
Target: SARS-CoV-1 스파이크 단백질 (SARS-CoV-1 spike protein, SP) (SARS-CoV-1, UniProt P59594 14-1195)

B1: Anti-SP2에서 발현된 Fv-변이체 (expressed Fv-variant of Anti-SP2, fusion protein with sfGFP and His-tag) (other)
chain: EVQLVESAAEVRRPGASVKITCKASGYSFSTYGIQWMRQAPGQRPEWLGWIHAGTGGTKYSRKFQGRITITRDTSANTVYLDLNSLTSEDTAVYYCARCLRQAGTADDVWGQGTTVTVSS
- Kd: 16.2 nM and 42.2 nM

B2: Anti-SP1에서 발현된 Fv-변이체 (expressed Fv-variant of Anti-SP1, fusion protein with sfGFP and His-tag) (other)
chain: EVQLVESAAEVRRPGASVKITCKASGYSFSTYGIQWMRQAPGQRPEWLGWIHAGTGGTKYSRKFQGRITITRDTSANTVYLDLNSLTSEDTAVYYCARGRTTGNDRPDYWGQGTTVTVSS
- Kd: 41.7 nM and 14.1 nM
